Assay: yeast display, Sf9 membrane polyspecificity reagent, FACS + sequencing; frameworks hold sequencing errors
Outline: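 Using colony PCR, genes from sorted yeast display clones were amplified, then sequenced on MiSeq at 2 × 250 and filtered by CDR length. The clones had been stained with 10% biotinylated, detergent-solubilized Sf9 membrane reagent for 1 hour at 4 °C and sorted by FACS into low and high (top ~1%) gates on anti-HA and streptavidin fluorescence. Polyreactivity labels come from the gate of origin.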

Sequence	polyreactivity (PSR sort gate)
QVQLVESGGGLVQAGGSLRLSCAASGSIFEGNTMGWYRQAPGKERELVASISSTANTYYADSVKGRFTLSRDNAKKNVYLQMNSLKPEDTAVYYCNVARYFLVPVVDDNYWGQGTQVTVSS	low polyreactivity
QVQLVESGGGLVQAGGSLRLSCAASGSIFEGYVMGWYRQAPGKERELVATISFSGGSTYYADSVKGRFTISRDNAKNTVYLQMNSLKPEDTAVYYCATSRYFNTGRGYWGQGTQVTVSS	low polyreactivity
QVQLVESGGGLVQAGGSLRLSCAASGSIFEINAMGWYRQAPGKERELVAAITGSGGSTHYADSVKGRFTISRDTAKNTVYLQMNSLKPEDTAVYYCAADICYFTKYGYWGQGTQVTVSS	low polyreactivity
QVQLVESGGGLVQAGGSLRLSCAASGSIFEINAMGWYRQGPGKERELVAAITGSGGSTHYADSVKGRFTISRDNAKNTDYLQMNSLKPEDTAVYYGAAVPRYQDGYWGQGTQVTVSS	low polyreactivity
QVQLVESGGGLVQAGGSLRLSCAASGSIFEPNAMGWYRQAPGKERELVAAISWNDGDTYYADSVKGRFTISRDNAKNTVYLQMNCLKPEDTAVYYCAAETGYAFDYWGQGTQVTVSS	low polyreactivity
QVQLVESGGGLVQAGGSLRLSCAASGSIFEPNAMGWYSQAPGKERELVAAISWNDGDTYYADSVKGRFTISRDNAKNTVYLQMNSLKPEDTAVYYCAAETGYAFDYWGQGTQVTVSS	low polyreactivity
QVQLVESGGGLVQAGGSLRLSCAASGSIFEPYAMGLYRQAPGKERELVAAIRWSGGSTYYADSVKGRFTISRDNAKNTVYLQMNSLKPEDTAVYYCAKYFPAGYYYWGQGTQVTVSS	low polyreactivity
QVQLVESGGGLVQAGGSLRLSCAASGSIFERYDMGWYRQAPGKERELVAAITSAGITYYADSVKGRFTISRDNAKNTVYLQMNSLKPEDTAVYYCAAQGRRGAPYRHVIEGDYWGQGTQVTVSS	low polyreactivity
QVQLVESGGGLVQAGGSLRLSCAASGSIFESNAMGWYRQAPGKEREFVAAIDWGDGSTSYADSVKGRFTISRDNAKNTVYLQMNSLKPEDTAVYYCAARSVFDLVYYNLIFDYWGQGTQVTVSS	high polyreactivity
QVQLVESGGGLVQAGGSLRLSCAASGSIFESYAMGWYRQAPGKERELVAAITKRGGSTYYADSVKGRFTISRDNAKYTVYLQMNSLKPEDTAVYYCNARWPGIGPIYDYCGQGTQVTVSS	low polyreactivity
QVQLVESGGGLVQAGGSLRLSCAASGSIFEVDALGWYRQAPGKERELVAAITSSDITYYADSVKGRFTISRDHAKTTVYLQMNSLKPEDTAVYYCNGEPPYRVKRSDYWGQGTQVTVSS	low polyreactivity
QVQLVESGGGLVQAGGSLRLSCAASGSIFEVNAMGWYRQAPGKERELVATITYSGGSTYYSDSVKGRFTISRDNAKNTVYLQMHSLKPEDTAVFYCAAPIGDVYVGNGYDSWGQGTQVTVSS	low polyreactivity
QVQLVESGGGLVQAGGSLRLSCAASGSIFEWYAMGWYRQAPGKASALVAAISSGGRTYYADSVKGRFTISRDNAKNTVYLQMISLKPEDTAVYYCAARDVDHVGGSKYYYWGLGTQVTVSS	high polyreactivity
QVQLVESGGGLVQAGGSLRLSCAASGSIFEYNAMGWYRQAPGKERELVAAISRSGGSTYYADSVKGRFTISRDNAKNTVYLQMISLKPEDTAVYYCAARSPRYYRDFGYWGQGTQVTVSS	high polyreactivity
QVQLVESGGGLVQAGGSLRLSCAASGSIFEYNGMGWYRQAPGKERELVAAITTTGTTDYADSVKGRFTISRDNAKNTVYLEMNSLIPEDTSVFYCAADYTYYYKGEYEYWGQGTQVTVSS	low polyreactivity
QVQLVESGGGLVQAGGSLRLSCAASGSIFEYYAMGWYRQAPGKERELVADITTIGGSTYYADSVKGRFTISRDNAKNTVYLQMNSLKPEDTAVYYCAADYFTTFYWYDYWGQGTQVTVSS	high polyreactivity
QVQLVESGGGLVQAGGSLRLSCAASGSIFFAYAMGWYRQAPGKERELVAAITSGVSTNYADSVKGRFTISRDNAKNTVYLQMNSLKPEDTAVYYCNADFDYGFDAGLAVQVVIHDYWGQGTQVTVSS	low polyreactivity
QVQLVESGGGLVQAGGSLRLSCAASGSIFFDYAMGGYRQAPGKERELVAAINSGGTTNYADSVKGRFTISRDNAKNTVYLQMKQPETGRYRGLLLQRFPGYLRWYRWFDYWGQGTQVTVSS	low polyreactivity
QVQLVESGGGLVQAGGSLRLSCAASGSIFFEYAMGWYRQAPGKERALVASINRGGGSTYYADSVKGRFTISRDYAKNTVYLQMNILIPEDTAVYYCAAQWKYRQYYLDYYWGQGTQVTVSS	low polyreactivity
QVQLVESGGGLVQAGGSLRLSCAASGSIFFFNAMGWYRQAPGKERELVAAISESGTSTYYADSVKGRFTISRDNAKNTVFLQMNSLKPEDTAVFYCKVVFRYAYGVYYTPEFYYWGQGTQVTVSS	low polyreactivity
QVQLVESGGGLVQAGGSLRLSCAASGSIFFFYDMGWYRKATGKERELVAAISSSGTRTYYADSVKGRFTISRDNAKNTVYLQMNSLKPEDTAVYYCAVVYPSENYYRYDYWGQVTQVTVSS	high polyreactivity

Sequence	polyreactivity (PSR sort gate)
QVQLVESGGGLVQAGGSLRLSCAASGSIFFGNAMGWYRQAPGKERELVAAIDSGGGTNYADSVKGRFTISRDNAKNTVYLQMNSLKPEDTAVYYCAREQGVNRNHDYWGQGTQVTVSS	low polyreactivity
QVQLVESGGGLVQAGGSLRLSCAASGSIFFGYAMGWYRQAPGKERELVATITSSGGITYYADSVKGRFTISRDNAKNTVYLQMNSLKPEDTAVYYCATYYYYTYDYWGQGTQVTVSS	low polyreactivity
QVQLVESGGGLVQAGGSLRLSCAASGSIFFGYGMGWYRQAPGKERELVATITTSGGTYYADAVKGRFTISRDNAKNTVYLQMNSLKPEDTAVYYCAATAAALDGNTIMYYWGQGTQVTVSS	low polyreactivity
QVQLVESGGGLVQAGGSLRLSCAASGSIFFINAMGWYRQAPGKERELVAAIRRGGSTYADSVKGRFTISRDNAKNTVYLQMNSLKPEDTAVYYCAARITWGATAKSRYSYLYDYWGQGTQVTVSS	high polyreactivity
QVQLVESGGGLVQAGGSLRLSCAASGSIFFIYAMGLYRQAPGKERELVAGITSRGITNYADSVKGRFTISRDNAKNTVYLQMNSLKPEDTAVYYCAAGDENYTDRYDYWGQGTQVTVSS	low polyreactivity
QVQLVESGGGLVQAGGSLRLSCAASGSIFFLYAMGWYRQAPGKERELVAAISRDGRTNYADSVKGRFTISRDNAKYTVYLQMKSLKPEDTAVYYGAKDGNHPGAVGYGYWGQGTQVTVSS	low polyreactivity
QVQLVESGGGLVQAGGSLRLSCAASGSIFFPNPLGWYRQAPGKERELVDAISWSGDSSYADSVKGRFTISRDNAKNTVYLQMNSLKPEDTAVYYCAAVYLWWSYEFDYWGQGTQVTVSS	low polyreactivity
QVQLVESGGGLVQAGGSLRLSCAASGSIFFPYTMGWYRQAPGKERELVARISLGGGRTYYADSVKGRFTISRDNAKNTVYLQMNSLKPEDTAVYYCNRGGWYAYYWGQGTQVTVSS	high polyreactivity
QVQLVESGGGLVQAGGSLRLSCAASGSIFFPYVMGWYRQAPGKERELVAAITYRAGSTYYADSVKGRFTISRDNAKNTVYLQMNSLKPEDTAVYYCAAVVSRSGEFGYWGQGTQVTVSS	low polyreactivity
QVQLVESGGGLVQAGGSLRLSCAASGSIFFRNAMGWYRQAPGKERELVASITSGGSTYYADSVKGRFTISRDNAKNTVYLLMNSLKPEDTAVFYCAARLWHLSYAGQGGDYWGQGTQVTVSS	low polyreactivity
QVQLVESGGGLVQAGGSLRLSCAASGSIFFRYAMGWYRPAPGKERELVAAISSDGSTYYADSVKGRFTISRDNAKNTVYLQMNSLKPEDTAVYYCNAEQAIFYWYATVTYDYWGQGTQVTVSS	low polyreactivity
QVQLVESGGGLVQAGGSLRLSCAASGSIFFSNAMGWYRQAPGKEREFVATITSSGVGTYYADSVKGRFTISRDNAKNTVYLQMNSLKPEDTAVDYCDADYNSQEDYWGQGTQVTVSS	low polyreactivity
QVQLVESGGGLVQAGGSLRLSCAASGSIFFSYAMGWYRQAPGKERELVAAITSSVDSTYYADSVKGRFTISRDNAKNTVYLQMNSLKPEDTAVYYCDARYRSGYYRYDYWGQGTQVTVSS	low polyreactivity
QVQLVESGGGLVQAGGSLRLSCAASGSIFFSYAMGWYRQAPGKERELVAGINWSGGSTYADSVKGRFTISRDNAKNPVYLQMNSLTPEDTAVYYCAAKYYSERSRYHYWGQGTQVTVSS	low polyreactivity
QVQLVESGGGLVQAGGSLRLSCAASGSIFFSYAMGWYRQAPGKERELVAGINWSGGSTYADSVKGRFTISRDNAKNTVYLQMNSLKPEDTAVYYCAAKYYSERSRYHYWGQGTQVTVSS	low polyreactivity
QVQLVESGGGLVQAGGSLRLSCAASGSIFFTNVMGWYRQAPGKEREFVAAITGGGGSTYYADSVKGRFTISRDNAKNTVYLQMNSLKPEDTAVYYCATKAKPRSGYNYWGQGTQVTVSS	low polyreactivity
QVQLVESGGGLVQAGGSLRLSCAASGSIFFTYAMGWYRQAPGKERELVAVISSNGARTYYADSVKGRFTISRDNAKNTVYLQMNSLKPEDPAVYYCAARSQGNYGWGQGTQVTVSS	high polyreactivity
QVQLVESGGGLVQAGGSLRLSCAASGSIFFVNAMGWYRQAPGKERELVAAITSGGNTNYADSVKGRFTISRDNAKNTVYFQMNSLKPEDTAVFYSATSYYLAYRSITTYDYWGQGTQVTVSS	low polyreactivity
QVQLVESGGGLVQAGGSLRLSCAASGSIFFWYTMGWYREAPGKERELVATITGSGSSTTYADSVKGRFTISRDNAKNTVYLQMNSLKPEDTAVYYCAAADIIDHSFPYDYWGQGTQVTVSS	low polyreactivity
QVQLVESGGGLVQAGGSLRLSCAASGSIFFYAMGWYRQAPGKERELVAGITSGGSTYYADSVKGRFTISRDNAKNTVYLQMNSLKPEDTAVYYCAARRRGYKYTYNSWGQGTQVTVSS	high polyreactivity

Reference: the nanobody polyreactivity screen of Harvey et al. (2022)
